From US20170335310A1

Assays:
[1] = target: C3b (UniProt P01024); experiment: cell-based or functional assay
[2] = target: C3b (UniProt P01024); experiment: SPR (Biacore), FH flowed over C3b amine-coupled to a CM5 chip; steady-state fit to two flow cells (1540 and 3030 RU C3b) together

Sequence of C3b (P01024 749-1663 limits assumed, chain 1 of 2): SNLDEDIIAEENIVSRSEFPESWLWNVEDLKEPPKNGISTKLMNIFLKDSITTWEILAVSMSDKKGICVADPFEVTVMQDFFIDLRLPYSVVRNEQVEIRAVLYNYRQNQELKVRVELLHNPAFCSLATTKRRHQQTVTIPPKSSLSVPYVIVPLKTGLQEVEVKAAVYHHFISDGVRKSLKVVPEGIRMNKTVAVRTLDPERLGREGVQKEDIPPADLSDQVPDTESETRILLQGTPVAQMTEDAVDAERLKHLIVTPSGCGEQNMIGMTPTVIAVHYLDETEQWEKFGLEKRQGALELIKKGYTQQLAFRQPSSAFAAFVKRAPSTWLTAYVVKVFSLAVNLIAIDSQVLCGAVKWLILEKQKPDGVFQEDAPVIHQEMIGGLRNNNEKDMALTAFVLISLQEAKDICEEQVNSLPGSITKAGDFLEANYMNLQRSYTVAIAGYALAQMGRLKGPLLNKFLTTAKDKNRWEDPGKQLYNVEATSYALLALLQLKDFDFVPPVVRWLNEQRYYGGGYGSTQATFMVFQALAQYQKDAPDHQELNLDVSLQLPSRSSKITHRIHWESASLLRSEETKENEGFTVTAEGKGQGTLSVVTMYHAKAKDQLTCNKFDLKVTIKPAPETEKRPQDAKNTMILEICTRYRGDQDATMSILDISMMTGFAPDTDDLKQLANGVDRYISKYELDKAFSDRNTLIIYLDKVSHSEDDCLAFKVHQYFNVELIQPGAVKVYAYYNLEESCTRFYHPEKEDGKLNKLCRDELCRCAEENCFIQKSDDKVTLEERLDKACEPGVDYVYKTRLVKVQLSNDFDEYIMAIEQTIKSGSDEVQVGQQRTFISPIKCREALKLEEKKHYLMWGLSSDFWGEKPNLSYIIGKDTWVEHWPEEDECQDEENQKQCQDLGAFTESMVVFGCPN
Sequence of C3b (P01024 23-667 limits assumed, chain 2 of 2): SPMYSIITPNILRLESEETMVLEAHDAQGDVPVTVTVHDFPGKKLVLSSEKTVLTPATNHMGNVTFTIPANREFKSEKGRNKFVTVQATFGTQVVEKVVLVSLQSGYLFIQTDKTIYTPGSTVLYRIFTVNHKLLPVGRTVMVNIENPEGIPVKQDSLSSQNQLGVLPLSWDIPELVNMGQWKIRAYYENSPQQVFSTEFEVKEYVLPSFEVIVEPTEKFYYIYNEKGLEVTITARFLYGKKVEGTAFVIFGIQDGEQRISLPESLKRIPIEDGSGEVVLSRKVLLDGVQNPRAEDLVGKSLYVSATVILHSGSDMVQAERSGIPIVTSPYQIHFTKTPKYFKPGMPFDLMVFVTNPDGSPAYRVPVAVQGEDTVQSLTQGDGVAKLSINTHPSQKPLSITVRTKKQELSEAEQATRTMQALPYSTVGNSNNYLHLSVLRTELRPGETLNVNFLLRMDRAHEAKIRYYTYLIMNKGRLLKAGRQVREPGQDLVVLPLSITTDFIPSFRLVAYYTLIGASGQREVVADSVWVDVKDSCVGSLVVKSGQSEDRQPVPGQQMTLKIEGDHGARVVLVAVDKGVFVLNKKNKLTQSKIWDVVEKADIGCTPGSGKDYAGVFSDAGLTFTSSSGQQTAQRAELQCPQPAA

“recombinant human complement factor H produced in Pichia pastoris from codon-optimised DNA (Example 2) (from UniProt P08603 19-1231)” was tested, and the cofactor for factor I-catalysed cleavage of C3b to iC3b (SDS-PAGE, Coomassie blue) [1] was less than 5 min and the Kd [2] was 1400 nM.
